# In patent publication US7858577B2, “Use of the long pentraxin PTX3 for the treatment of diseases caused by an altered activation of the growth factor FGF-2” (Sigma-Tau Industrie Farmaceutiche Riunite S.p.A., priority 2000, dated 2010):
# Assays:
# [1] = target: T1, interaction between 125I-FGF-2 and plastic immobilised PTX3 (Homo sapiens, UniProt P09038+P26022); experiment: 125I-FGF-2 binding to plastic immobilised PTX3 in the presence of an excess of competitor; settings: excess of competitor: FGF-2 or Cytocrome C 100 nM, soluble PTX3 300 nM
# T1 construct: made in house
# T1 sequence (P09038 134-288): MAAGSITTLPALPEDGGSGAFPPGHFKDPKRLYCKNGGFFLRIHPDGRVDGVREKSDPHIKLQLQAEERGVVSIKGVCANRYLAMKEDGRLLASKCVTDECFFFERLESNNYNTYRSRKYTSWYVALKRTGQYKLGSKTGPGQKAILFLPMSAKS
# T1 sequence (P26022 18-381): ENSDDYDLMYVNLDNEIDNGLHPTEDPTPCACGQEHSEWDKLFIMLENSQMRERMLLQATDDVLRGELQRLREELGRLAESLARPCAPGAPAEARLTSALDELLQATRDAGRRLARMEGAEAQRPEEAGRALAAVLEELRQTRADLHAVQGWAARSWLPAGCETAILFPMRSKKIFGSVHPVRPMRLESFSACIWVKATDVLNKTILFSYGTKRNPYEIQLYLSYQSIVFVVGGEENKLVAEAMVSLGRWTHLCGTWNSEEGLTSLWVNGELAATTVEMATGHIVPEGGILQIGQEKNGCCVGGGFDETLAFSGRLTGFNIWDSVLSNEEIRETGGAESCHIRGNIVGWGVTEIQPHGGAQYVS
# Experimental: 96 wells plates were coated at 4° C. with 100 μl of NaHCO3 pH 9.6 containing PTX3 or C reactive protein (200 nM) or alternatively 2 μg/ml of the following proteins used as negative control: bovine serum albumin, fibronectin, gelatine or laminin. After incubation, wells were washed 3 times with PBS and blocked 2 h at room temperature with 200 μl of 1 mg/ml of BSA in PBS. At the end of incubation wells were washed 3 times with PBS and subsequently incubated with 30 ng of ^125I-FGF-2 for 2 h at room temperature. Wells were subsequently washed 3 times with PBS and bound ^125I-FGF-2 was recovered by washing each well twice with 200 μl of 2% SDS in water. Levels of ^125I-FGF-2 were measured in a gamma counter.
# In a second set of experiments the binding of ^125I-FGF-2 to plastic immobilised PTX3 has been tested in the presence of an excess of both native or heat denatured cold FGF-2 (100 nM), in the presence of similar Cytocrome C concentrations or in the presence of an excess of soluble PTX3 (300 nM).
# GM 7373 cells = experiment: Effect of PTX3 on proliferation induced by other mitogens (FCS, DAG, TPA, EGF, VEGF); assay type: cell-based, bovine; settings: 10% FCS, 5 μg/ml DAG, 10 ng/ml TPA, 30 ng/ml EGF or 30 ng/ml VEGF
# Experimental: GM 7373 cells were seeded at 75,000 cells/cm^2 in 48-well plates in Eagle MEM containing 10% FCS. After 24 h at 37° C. adherent cells were washed twice with Eagle's MEM without FCS and subsequently incubated for 24 h at 37° C. in Eagle's MEM containing 0.4% FCS in the absence or in the presence of FGF-2 (10 ng/ml) and increasing concentrations of PTX3. At the end of incubation cells were trypsinized and counted. In a different set of experiments GM 7373 cells were treated as described above in the presence of different mitogenic stimuli: 10% FCS; 5 μg/ml dyacyl-glycerol (DAG); 10 ng/ml phorbol ester (TPA) 30 ng/ml epidermal growth factor (EGF) or 30 ng/ml vascular endothelial growth factor (VEGF). Results reported in FIG. 7 shown that PTX3 inhibits the mitogenic activity exerted on endothelial cells by FGF-2 in a dose-dependent manner with an ID50 equal to 30 nM. This value is similar to the Kd calculated for the interaction FGF-2-PTX3.
# FGF2MAE3F2T cells = experiment: Invasive behaviour of PTX3 over-expressing FGF2MAE3F2T clones on three-dimensional fibrin gels; assay type: cell-based, murine; settings: PTX3 over-expressing clones (cDNA transfection) vs parental cells, after 2 days, image analysis
# Source text: Murine endothelial cells overexpressing FGF-2, named FGF2MAE3F2T (Gualandris et al. 1996, Cell Growth Diff. 7:147-60) were transfected with human PTX3 full length cDNA subcloned in the commercial expression vector pLXSH (Clontech).
# In vitro studies on the transfected cell lines obtained were, performed to study the effect of PTX3 over-expression on FGF-2-dependent proliferation of FGF2MAE3F2T cells and their invasive behaviour on three-dimensional fibrin gels.
# To evaluate the invasive behaviour of FGF2MAE3F2T clones over-expressing PTX3 on three-dimensional fibrin gels, cell aggregates were prepared on agarose-coated plates exactly as described (Gualandris et al. 1996, Cell Growth Diff. 7:147-60). These aggregates were seeded onto fibrin-coated 48 well-plates. Immediately after seeding, 250 µl of calcium-free medium containing fibrinogen (2.5 mg/ml) and thrombin (250 mU/ml) were added to each well and allowed to gel for 5 min at 37° C. Then, […] of culture medium were added on the top of the gel. In all the, experiments, the fibrinolytic inhibitor trasylol was added to the gel and to the culture medium at 200 KIU/ml to prevent the dissolution of the substrate. Formation of radially growing cell sprouts was evaluated after 2 days by computerized image analysis.
# FGF-2 = target: T2, FGF-2 (Homo sapiens, UniProt P09038); experiment: Dissociation constant (Kd) of FGF-2/PTX3 interaction, Scatchard plot; assay type: binding; settings: increasing doses of 125I-FGF-2 on plastic immobilised PTX3, Scatchard plot
# T2 construct: made in house
# T2 sequence (P09038 134-288): as the sequence (P09038 134-288) above
# Experimental: With this experiment the dissociation constant (Kd) FGF-2/PTX3 interaction has been determined. For this purpose increasing doses of ^125I-FGF-2 were incubated with plastic immobilised PTX3 and binding results were analysed by Scatchard plot. […] This affinity is similar to the affinity previously calculated for the interaction of PTX3 with its physiological ligand C1q.
substance,measurement,setting,value
"PTX3: long pentraxin PTX3; preferred is human PTX3, sequence described in WO99/32516; produced as by Bottazzi et al. 1997",inhibition of the interaction between 125I-FGF-2 and plastic immobilised PTX3,[1],inhibited the interaction
same,inhibitory activity when other mitogens are used to induce cellular proliferation,GM 7373 cells,not detectable
same,invasive capacity on fibrin gels (radially growing cell sprouts),FGF2MAE3F2T cells,significantly lower
same,Kd,FGF-2,8 to 16 nM
